Source: patent US20210277110A1 (Janssen / Centocor, published 2021)
Like-named read-outs stand apart in the source and are kept apart here.

How the values were obtained:
[1] = target: T1, Extracellular domain of human PD1 (huPD1-ECD) (human, UniProt Q15116 25-169, biotinylated in the ligand inhibition assay (sites not given)); test: SPR ProteOn, huPD1-ECD; RANGE high replicate
T1 construct: Expressed with a hexahistidine tag or as Fc fusion; also called biotinylated PD-1

[2] = target: T1, Extracellular domain of human PD1 …; test: SPR ProteOn, huPD1-ECD; RANGE high replicate; RANGE high replicate
Procedure: (§1) Affinity measurements using Surface Plasmon Resonance (SPR) were performed using a ProteOn XPR36 system. A biosensor surface was prepared by coupling a mixture of anti-IgG Fc modified alginate polymer layer surface of a GLC chip using the manufacturer instructions for amine-coupling chemistry. […] The collected data were processed and fitted to a Langmuir 1:1 binding model. The result for each mAb was reported in the format of kₒₙ (On-rate), koff (Off-rate) and KD (equilibrium dissociation constant).
(§2) STDEV were calculated for 3 or more replicates generated for human and cyno proteins. If less than 3 replicates were calculated, RANGE is indicated. RANGE is defined as the low and high values for the replicates tested. For samples without RANGE or STDEV, only one experiment was performed

[3] = target: T1, Extracellular domain of human PD1 …; test: SPR ProteOn, huPD1-ECD; RANGE low replicate; RANGE low replicate
Procedure: as §1, §2

[4] = target: T2, Extracellular domain of cyno PD1 (cPD1-ECD) (Macaca fascicularis (cynomolgus)); test: SPR ProteOn, captured mAb, cynoPD1-ECD analyte
T2 construct: Expressed with a hexahistidine tag or as Fc fusion; also called cynoPD1-ECD; cynoPD-1-ECD
T2 chain: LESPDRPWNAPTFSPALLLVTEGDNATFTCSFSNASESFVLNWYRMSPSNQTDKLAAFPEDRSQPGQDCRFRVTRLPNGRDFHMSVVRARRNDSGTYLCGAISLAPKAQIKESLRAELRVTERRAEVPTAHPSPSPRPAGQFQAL
Procedure: as §1
(§3) STDEV were calculated for 3 or more replicates generated for human and cyno proteins. If less than 3 replicates were calculated, RANGE was indicated. RANGE is defined as the low and high values for the replicates tested. For samples in the Table 10 or Table 11 without value indicated in RANGE or STDEV, only one experiment was performed.

[5] = target: T2, Extracellular domain of cyno PD1 …; test: SPR ProteOn, cynoPD1-ECD; RANGE low replicate
Procedure: as §1, §3

[6] = target: T1, Extracellular domain of human PD1 …; test: MSD ligand inhibition, competitor coated huPDL2-ECD
Procedure: (§4) The ligand inhibition assay design was MSD (Mescoscale Discovery) based. A MSD plate was directly coated with ligand (cynoPDL1-ECD, huPDL1-ECD or huPDL2-ECD) and incubated overnight at 4° C. The following day, the coating solution was removed and the plate was blocked. […] Depending on the panel of antibodies to be tested, the antibodies were tested as titrations or at a fixed concentration.

[7] = target: T2, Extracellular domain of cyno PD1 …; test: SPR ProteOn, cynoPD1-ECD; RANGE high replicate
Procedure: as §1, §2

[8] = target: T1, Extracellular domain of human PD1 …; test: SPR ProteOn, huPD1-ECD; RANGE low replicate
Procedure: as §1, §2

[9] = target: T1, Extracellular domain of human PD1 …; test: SPR ProteOn, captured mAb, huPD1-ECD analyte
Procedure: as §1, §2

[10] = target: T2, Extracellular domain of cyno PD1 …; test: SPR ProteOn, cynoPD1-ECD; RANGE high replicate
[11] = target: T1, Extracellular domain of human PD1 …; test: MSD ligand inhibition, competitor coated huPDL1-ECD
Procedure: as §4

[12] = target: T2, Extracellular domain of cyno PD1 …; test: SPR ProteOn, captured mAb, cynoPD1-ECD analyte
Procedure: as §1, §2

[13] = target: T1, Extracellular domain of human PD1 …; test: SPR ProteOn, captured mAb, huPD1-ECD analyte; remark: listed apart in the source
[14] = target: T3, Full length human PD1 (huPD1) on cells (human, UniProt Q15116 25-288); test: flow cytometry, PHA-stimulated Jurkat cells
T3 construct: on T cells of human donors in the MLR and CMV assays (functional); also called PD-1 on Jurkat cells
T3 sequence (Q15116 25-288 limits assumed): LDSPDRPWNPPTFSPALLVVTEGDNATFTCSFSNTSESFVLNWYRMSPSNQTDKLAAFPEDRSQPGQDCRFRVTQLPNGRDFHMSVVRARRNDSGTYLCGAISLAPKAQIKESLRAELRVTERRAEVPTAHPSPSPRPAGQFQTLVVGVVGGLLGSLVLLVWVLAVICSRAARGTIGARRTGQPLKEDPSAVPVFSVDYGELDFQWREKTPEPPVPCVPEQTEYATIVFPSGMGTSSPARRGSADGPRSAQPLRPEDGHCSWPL

[15] = target: T3, Full length human PD1 (huPD1) on cells; test: flow cytometry, PHA-stimulated Jurkat cells; remark: listed apart in the source
Procedure: (§5) Jurkat cells were stimulated overnight with 20 ng/ml of PHA, harvested, washed, and checked for viability. The cells were then incubated at 6-10° C. for 45-60 minutes with various concentrations of test antibodies, washed and incubated at 6-10° C. for 45-60 minutes with FITC-labeled goat anti-human IgG. The cells were washed and fixed with BD Cytofix, refrigerated overnight and analyzed on a MACSQuant flow cytometer. The percentage of PD-1 positive cells at each antibody concentration was plotted vs log of the antibody concentration and EC₅₀ values were generated in Prism.

[16] = target: T1, Extracellular domain of human PD1 …; test: MSD ligand inhibition, competitor coated cynoPDL1-ECD
Procedure: The ligand inhibition assay design was MSD (Mescoscale Discovery) based. A MSD plate was directly coated with ligand (cynoPDL1-ECD, huPDL1-ECD or huPDL2-ECD) and incubated overnight at 4° C. The following day, the coating solution was removed and the plate was blocked. […] Depending on the panel of antibodies to be tested, the antibodies were tested as titrations or at a fixed concentration. […] The mAbs that were positive for inhibition of ligand binding at one concentration were also tested in dose responses for inhibition of various PD-1 ligands.
Select Fabs were cloned as IgG2sigma isotype and characterized for their Jurkat cell binding and cynomolgus PD-L1 ligand inhibition at concentrations 1 μg/ml and 10 μg/ml.

[17] = target: T1, Extracellular domain of human PD1 …; test: SPR ProteOn, captured mAb; antigen species not given
[18] = target: T1, Extracellular domain of human PD1 …; test: MSD ligand inhibition, competitor coated cynoPDL1-ECD; remark: listed apart in the source
Procedure: as §4

[19] = target: T2, Extracellular domain of cyno PD1 …; test: SPR ProteOn, cynoPD1-ECD; RANGE low replicate
Procedure: as §1, §2

[20] = target: T3, Full length human PD1 (huPD1) on cells; test: flow cytometry, Jurkat cells
Procedure: as §5

[21] = target: T1, Extracellular domain of human PD1 …; test: SPR, human PD-1 affinity
Procedure: as §1

[22] = target: T1, Extracellular domain of human PD1 …; test: MSD ligand inhibition, competitor coated cynoPDL1-ECD; remark: listed apart in the source
Procedure: as §4

[23] = target: T1, Extracellular domain of human PD1 …; test: MSD ligand inhibition, competitor coated huPDL1-ECD; remark: listed apart in the source
Procedure: as §4

[24] = target: T3, Full length human PD1 (huPD1) on cells; test: cell-based or functional assay
[25] = target: T2, Extracellular domain of cyno PD1 …; test: SPR ProteOn, cynoPD1-ECD; RANGE low replicate; RANGE low replicate
Procedure: as §1, §2

[26] = target: T2, Extracellular domain of cyno PD1 …; test: SPR ProteOn, cynoPD1-ECD; RANGE high replicate; RANGE high replicate
Procedure: as §1, §3

[27] = target: T1, Extracellular domain of human PD1 …; test: SPR ProteOn, captured mAb, huPD1-ECD analyte; approximation (chi2 > 20%)
Procedure: as §1
STDEV were calculated for 3 or more replicates generated for human and cyno proteins. If less than 3 replicates were calculated, RANGE was indicated. RANGE is defined as the low and high values for the replicates tested.

[28] = target: T1, Extracellular domain of human PD1 …; test: SPR ProteOn, comparison with PD1B114
[29] = target: T2, Extracellular domain of cyno PD1 …; test: SPR ProteOn, comparison with PD1B114
[30] = target: T2, Extracellular domain of cyno PD1 …; test: SPR ProteOn, cynoPD1-ECD; RANGE high replicate; RANGE high replicate
Procedure: as §1, §2

T1 sequence (Q15116 25-169 limits assumed): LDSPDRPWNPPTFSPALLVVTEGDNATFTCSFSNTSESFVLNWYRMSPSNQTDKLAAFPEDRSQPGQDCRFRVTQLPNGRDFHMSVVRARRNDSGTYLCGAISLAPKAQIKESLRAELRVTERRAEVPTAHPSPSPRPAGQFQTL

B1: PD1B70 (antibody, V domains shown)
VH: QVQLVQSGAEVKKPGSSVKVSCKASGGTFSSYAISWVRQAPGQGLEWMGGIIPIFGTANYAQKFQGRVTITADESTSTAYMELSSLRSEDTAVYYCARGYVRATGMLDYWGQGTLVTVSS
VL: EIVLTQSPATLSLSPGERATLSCRASQSVSSYLAWYQQKPGQAPRLLIYDASNRATGIPARFSGSGSGTDFTLTISSLEPEDFAVYYCQQRSNWPLTFGQGTKVEIK
notes: Tested as IgG2sigma/kappa; also called PD1H107/PH9L3
koff [1]: 0.0356 s⁻¹
kon [1]: 800000 M⁻¹ s⁻¹
Kd [2]: 48.3 nM
Kd [3]: 42.6 nM
Kd [4]: 123 nM
koff [4]: 0.0258 s⁻¹
kon [4]: 210000 M⁻¹ s⁻¹
Kd [5]: 109 nM
koff [5]: 0.0245 s⁻¹
kon [5]: 199000 M⁻¹ s⁻¹
IC50 [6]: 0.059 µg/mL
Kd [7]: 100 nM
koff [7]: 0.0226 s⁻¹
kon [7]: 274000 M⁻¹ s⁻¹
koff [8]: 0.0341 s⁻¹
kon [8]: 737000 M⁻¹ s⁻¹
Kd [9]: 45.4 nM
koff [9]: 0.0349 s⁻¹
kon [9]: 769000 M⁻¹ s⁻¹
Kd [10]: 138 nM
koff [10]: 0.0275 s⁻¹
kon [10]: 225000 M⁻¹ s⁻¹
IC50 [11]: 0.04 µg/mL
Kd [12]: 89 nM
koff [12]: 0.0222 s⁻¹
kon [12]: 250000 M⁻¹ s⁻¹
Kd [13]: 101 nM
koff [13]: 0.0418 s⁻¹
kon [13]: 415000 M⁻¹ s⁻¹
EC50 [14]: 0.69 µg/mL
EC50 [15]: 0.69 to 1.32 µg/mL
percentage ligand not blocked at 1 µg/ml [16]: 6%
percentage ligand not blocked at 10 µg/ml [16]: 6%
Kd [17]: 166 nM
koff [17]: 0.0304 s⁻¹
kon [17]: 184000 M⁻¹ s⁻¹
IC50 [18]: 0.01 to 0.021 µg/mL
Kd [19]: 79.6 nM
koff [19]: 0.0218 s⁻¹
kon [19]: 225000 M⁻¹ s⁻¹

B2: PD1B131 (antibody, V domains shown)
VH: EVQLVESGGGLVQPGGSLRLSCAASGFAFSRYDMSWIRLAPGKGLESVAYISGGGANTYYLDNVKGRFTISRDNAKNSLYLQMNSLRAEDTAVYYCASPYLSYFDVWGQGTLVTVSS
VL: EIVMTQSPATLSVSPGERATLSCRASQSLSDYLHWYQQKPGQAPRLLIKSASQSISGIPARFSGSGSGTEFTLTISSLQSEDFAVYYCQNGHSFPYTFGQGTKLEIK
notes: Humanized variant of PD1B28; also called PD1H130/PD1L62
Jurkat cell binding relative to PD1B28 [20]: 100%
Kd [21]: 0.127 nM
koff [21]: 0.000105 s⁻¹
kon [21]: 827000 M⁻¹ s⁻¹
IC50 [22]: 0.096 µg/mL
IC50 [23]: 0.079 µg/mL

B3: PD1B132 (antibody, IgG2, V domains shown)
VH: EVQLVESGGGLVQPGGSLRLSCAASGFAFSRYDMSWVRQAPGKGLESVAYISGGGANTYYLDNVKGRFTISRDNAKNSLYLQMNSLRAEDTAVYYCASPYLSYFDVWGQGTLVTVSS
VL: EIVMTQSPATLSVSPGERATLSCRASQSLSDYLHWYQQKPGQAPRLLIKSASQSISGIPARFSGSGSGTEFTLTISSLQSEDFAVYYCQNGHSFPYTFGQGTKLEIK
notes: Humanized variant of PD1B28; also called PD1H129/PD1L62
Jurkat cell binding relative to PD1B28 [20]: 100%
Kd [21]: 0.096 nM
koff [21]: 8.8e-05 s⁻¹
kon [21]: 914000 M⁻¹ s⁻¹
CMV EC50, nM (IFN-γ induction) [24]: 0.07 nM
IC50 [22]: 0.079 µg/mL
IC50 [23]: 0.055 µg/mL

B4: PD1B11 (antibody, V domains shown)
VH: QVQLVQSGAEVKKPGSSVKVSCKASGGTFSSYAISWVRQAPGQGLEWMGGIIPIFGTANYAQKFQGRVTITADESTSTAYMELSSLRSEDTAVYYCARPGLAAAYDTGSLDYWGQGTLVTVSS
VL: EIVLTQSPATLSLSPGERATLSCRASQSVSSYLAWYQQKPGQAPRLLIYDASNRATGIPARFSGSGSGTDFTLTISSLEPEDFAVYYCQQRSNWPLTFGQGTKVEIK
notes: Tested as IgG2sigma/kappa; also called PD1H3/PH9L3
koff [25]: 0.00938 s⁻¹
koff [26]: 0.01 s⁻¹
kon [26]: 301000 M⁻¹ s⁻¹
Kd [1]: 9.81 nM
koff [2]: 0.00943 s⁻¹
kon [2]: 982000 M⁻¹ s⁻¹
koff [3]: 0.00867 s⁻¹
Kd [4]: 31.3 nM
koff [4]: 0.00917 s⁻¹
kon [4]: 293000 M⁻¹ s⁻¹
Kd [5]: 27.7 nM
koff [5]: 0.008 s⁻¹
kon [5]: 285000 M⁻¹ s⁻¹
IC50 [6]: 0.029 µg/mL
Kd [7]: 27.1 nM
kon [7]: 350000 M⁻¹ s⁻¹
Kd [8]: 9.6 nM
kon [8]: 884000 M⁻¹ s⁻¹
Kd [27]: ~17 nM
Kd [9]: 9.7 nM
koff [9]: 0.00905 s⁻¹
kon [9]: 933000 M⁻¹ s⁻¹
fold tighter affinity compared to PD1B114 [28]: ~3 fold
fold tighter affinity compared to PD1B114 [29]: ~2 fold
Kd [10]: 35.1 nM
IC50 [11]: 0.019 µg/mL
Kd [12]: 26.9 nM
koff [12]: 0.00942 s⁻¹
kon [12]: 350000 M⁻¹ s⁻¹
koff [13]: 0.00852 s⁻¹
kon [13]: 516000 M⁻¹ s⁻¹
koff [30]: 0.00946 s⁻¹
EC50 [14]: 0.05 µg/mL
EC50 [15]: 0.03 to 0.24 µg/mL
percentage ligand not blocked at 1 µg/ml [16]: 5%
percentage ligand not blocked at 10 µg/ml [16]: 5%
Kd [17]: 19.2 nM
koff [17]: 0.00896 s⁻¹
kon [17]: 468000 M⁻¹ s⁻¹
IC50 [18]: 0.017 to 0.018 µg/mL
Kd [19]: 26.8 nM
kon [19]: 349000 M⁻¹ s⁻¹
